The target of test [1] is human IgE (SUS-11 IgE) (human) (UniProt P01854). The experiment in a line: SPR (BIAcore), IgE amine-coupled to CM5 chip, monophasic model. On the technique in general: SPR reads the build-up and loss of mass on a sensor chip optically.
Test [2] has the same target. The experiment in a line: competition ELISA: SUS-11 IgE (1 µg/ml) pre-incubated with the antibody, captured on anti-IgE Le27; blocked ligand is HRP-labeled FcεRIα-HSA-FcεRIα (DFP); binding without competitor = 100 %.

UniProt P01854, sequence (P01854 other isoform, or with tags, fused parts or gaps): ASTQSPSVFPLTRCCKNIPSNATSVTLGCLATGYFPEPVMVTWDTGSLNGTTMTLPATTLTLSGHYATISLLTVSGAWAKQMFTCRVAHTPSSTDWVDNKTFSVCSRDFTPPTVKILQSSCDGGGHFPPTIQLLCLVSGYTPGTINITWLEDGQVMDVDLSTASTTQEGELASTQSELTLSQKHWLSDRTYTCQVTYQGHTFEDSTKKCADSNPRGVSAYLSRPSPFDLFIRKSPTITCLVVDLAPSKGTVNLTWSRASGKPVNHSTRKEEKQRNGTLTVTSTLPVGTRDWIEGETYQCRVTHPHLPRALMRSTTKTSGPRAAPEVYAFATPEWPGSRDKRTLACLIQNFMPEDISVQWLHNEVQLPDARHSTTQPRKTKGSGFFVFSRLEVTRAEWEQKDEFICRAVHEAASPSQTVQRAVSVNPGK

In the case of “BSW17, mouse monoclonal anti-human IgE antibody (hybridoma ECACC 96121916)”, in test [1], the Kd (in general, the free concentration of one partner at which half of the binding sites on the other are occupied at equilibrium, for simple one-to-one binding) came out at 530 pM; the koff (in general, the first-order rate constant of dissociation) stood at 4.2e-06 s⁻¹; the kon (as a rule, a measure of how fast the partners come together) came to 8000 M⁻¹ s⁻¹. For the same substance, the IC50 (read off the curve) in test [2] was 0.4 µg/mL.

The values above are taken from patent US7041288.
